In paper PMC10715591, “EspB and HtpG interact with the type III-A CRISPR/Cas system of Mycobacterium tuberculosis” (Frontiers in Molecular Biosciences, 2023):

Target: T1, MtbHtpG (high-temperature protein G) (Mycobacterium tuberculosis H37Rv, UniProt P9WMJ7 1-647)
T1 construct: also called Chaperone htpG
T1 sequence: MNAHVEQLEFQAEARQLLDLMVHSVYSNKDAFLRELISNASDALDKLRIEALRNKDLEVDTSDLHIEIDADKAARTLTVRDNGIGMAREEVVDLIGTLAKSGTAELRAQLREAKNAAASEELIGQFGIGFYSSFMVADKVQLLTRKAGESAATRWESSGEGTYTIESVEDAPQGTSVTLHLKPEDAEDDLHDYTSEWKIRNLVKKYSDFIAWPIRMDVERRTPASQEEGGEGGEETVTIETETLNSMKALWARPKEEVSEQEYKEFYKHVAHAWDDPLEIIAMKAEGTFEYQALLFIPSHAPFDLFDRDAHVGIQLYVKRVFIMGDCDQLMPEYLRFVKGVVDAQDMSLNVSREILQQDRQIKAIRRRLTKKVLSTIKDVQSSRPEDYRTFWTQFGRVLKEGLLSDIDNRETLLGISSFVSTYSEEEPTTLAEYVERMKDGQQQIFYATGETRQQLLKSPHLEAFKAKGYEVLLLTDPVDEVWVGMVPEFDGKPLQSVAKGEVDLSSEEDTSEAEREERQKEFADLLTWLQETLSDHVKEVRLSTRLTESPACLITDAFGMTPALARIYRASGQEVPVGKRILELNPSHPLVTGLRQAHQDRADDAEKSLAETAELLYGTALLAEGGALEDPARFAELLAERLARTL
Test: SPR
Conditions: both partners purified

B1: MtbCsm3 (natural protein)
chain: MTTSYAKIEITGTLTVLTGLQIGAGDGFSAIGAVDKPVVRDPLSRLPMIPGTSLKGKVRTLLSRQYGADTETFYRKPNEDHAHIRRLFGDTEEYMTGRLVFRDTKLTNKDDLEARGAKTLTEVKFENAINRVTAKANLRQMERVIPGSEFAFSLVYEVSFGTPGEEQKASLPSSDEIIEDFNAIARGLKLLELDYLGGSGTRGYGQVKFSNLKARAAVGALDGSLLEKLNHELAAV
Kd: 59.4 nM
koff: 0.000914 s⁻¹
kon: 15400 M⁻¹ s⁻¹
